From doi:10.1101/2025.06.23.660979
Values belong to the substance of their own block, whether it stands above or below them.

Assays:
[1] = biological target: BcLmuA K59A, nuclease-dead BcLmuA of the BcLmuA(K59A)B complex (Bacillus cellulasensis NIO-1130); experiment: cryo-EM structure
[2] = biological target: VcLmuA, LmuA of the type II Lamassu system from Vibrio cholerae O1 El (Vibrio cholerae O1 El); experiment: cryo-EM structure
[3] = biological target: VcLmuA, LmuA of the type II Lamassu system from Vibrio cholerae O1 El (Vibrio cholerae O1 El); experiment: SEC-MALS

stoichiometry N [1]: 4
Substance: BcLmuA K59A, nuclease-dead BcLmuA of the BcLmuA(K59A)B complex (natural protein)

Substance: VcLmuA, LmuA of the type II Lamassu system from Vibrio cholerae O1 El (natural protein)
stoichiometry N [2]: 4

Substance: VcLmuC, LmuC of the type II Lamassu system from Vibrio cholerae O1 El (natural protein)
stoichiometry N (LmuC per LmuA) [3]: 1
stoichiometry N (VcLmuC per VcLmuA) [2]: 1
